We go through six molecules from article PMC5993284, “Peptide inhibitors of the anaphase promoting-complex that cause sensitivity to microtubule poison” (PLoS ONE, 2018).

Changes are numbered by the printed parent chain. Numbers in names are those of the source. Ends that are not written are not given here. * marks the point of attachment. Biotin = O=C1N[C@H]2[C@H](CS[C@H]2CCCCC(=O)*)N1

Assay [1] deals with Anaphase Promoting-Complex/Cyclosome (APC/C) isolated through Cdc16-TAP and kept on IgG beads (S. cerevisiae | S. cerevisiae (endogenous in yeast)) (UniProt P09798).
In assay [2] the test system is Cdc20. Description: Avidin-bead pull-down of full-length Cdc20 made by IVT/T. To be noted: biotinylated form; Avidin beads; rabbit reticulocyte lysate; Western blot; n = 3. In kind it is binding, Saccharomyces cerevisiae. As for the experimental part:
To determine if Tyc1 could interact directly with the APC/C a pure N-terminal biotinylated form of Tyc1 was incubated with purified APC/C. […] Thus, like Mad2-binding motif peptides, unexpectedly Tyc1 protein binds to and inhibits APC/C when present in excess leading to a microtubule poison sensitivity phenotype in vivo.
Supplementary file pone.0198930.s008.tif: S8 Fig Tyc1 can pull-down recombinant Cdc20 synthesized by IVT/T. A) A Western blot displaying the detection of Cdc20 protein made by IVT/T (left), where the epitope tag is at the N-terminus of the ORF. The IVT/T reaction yields a series of protein products that display full-length and lower molecular weights, potentially the result of pre-mature translation termination. An Avidin-bead pull-down using a biotinylated-Tyc1 (Bio-Tyc1) is shown (right). […] B) An Avidin-bead pull-down using a biotinylated-Tyc1-mut1 (Bio-Tyc1-mut1) (middle) and biotinylated-Tyc1-mut2 (Bio-Tyc1-mut2) are shown (right). […] (TIF) Click here for additional data file.
A general note: Immunoblotting shows a protein as a band on a membrane.

The target of assay [3] is Anaphase Promoting-Complex/Cyclosome (APC/C) isolated through Cdc16-TAP and kept on IgG beads (S. cerevisiae | S. cerevisiae (endogenous in yeast)) (UniProt P09798). The source holds these as a separate data set.
In assay [4] the test system is APC/C. Description: APC/C activity promoted by mutant Cdc20 alleles in the presence of Mad2 (Pds1 remaining). In kind it is biochemical, Saccharomyces cerevisiae. The following applies: 5.0 μM Mad2, n = 3. The method, then: (§1) The production of Cdc20 or Cdh1 was prepared by IVT/T reactions, where 16 μL of rabbit reticulocyte lysate, 20 μM L-methionine, 0.4 μg of plasmid DNA, and a volume of nuclease-free ddH2O for a total volume of 20 μL. This freshly synthesized Cdc20 or Cdh1 protein was used directly in all APC/C assays after a 1-hour synthesis reaction at room temperature. The APC/C was purified for enzyme assays from 1 mL of TAP-tagged Cdc16 yeast extract (SCSY51) where extract was mixed with 50 μL 50:50 slurry magnetic beads (Invitrogen, Norway) for 2 hours at 4 °C. After incubation, the beads were washed with 3 mL APC/C wash buffer (200 mM of HEPES, 150 mM of NaCl and 10% (v/v) of glycerol). APC/C bound to IgG magnetic beads was used directly in the enzyme assays.
(§2) APC/C assays were performed by adding the reaction contents in following order: 4.3 μL of QAH buffer, 20 μL of rabbit reticulocyte lysate containing Cdc20 or Cdh1 with or without an additional volume of recombinant checkpoint protein(s) or inhibitor peptides, 2.4 μL ubiquitin aldehyde (Boston Biochem, USA), APC/C, 16 μL pre-charged E1/E2/ATP/ubiquitin mix, and 13.3 μL of ^35S-Pds1 with QAH buffer (20 mM HEPES at pH 8.0, 100 mM NaCl, and 1 mM MgCl2). The E1/E2/ATP/ubiquitin mix were pre-charged by mixing 1 μL of E1 (Boston Biochem, USA), 1 μL of E2 (Boston Biochem, USA), 14.4 μL of ATP, 14.4 μL of […] (Boston Biochem, USA), and 17.2 μL of QAH buffer and incubated for 15 minutes at room temperature. Approximately 15 μL of samples were taken out at each time point, and the reaction was stopped by the addition of 2x protein sample buffer (125 mM Tris-HCl pH 6.8, 4% SDS, 20% glycerol, and 0.002% bromophenol blue, with 10% (final v/v) 2-mercaptoethanol added in fresh directly before use).
For inhibitor titration and time-course experiments, recombinant Bub3, Mad2, Mad3, and the Mad3-Bub3 complex were expressed and purified as previously described. Inhibitory peptides were synthesized by standard procedures and purified to 99% purity by HPLC (Kelowna International Scientific Inc., Taiwan). For inhibition of APC/C the co-factor Cdc20 or Cdh1 was made fresh by IVT/T, and pure recombinant checkpoint proteins or inhibitor peptides were added to the IVT/T mixture and incubated for an additional hour at room temperature. In titrations, a dilution series of the checkpoint protein(s) were made before incubation with the Cdc20 co-factor. […]
Our first goal was to measure the ability of the mutant alleles to promote APC/C activity in vitro. To ensure any observed change in APC/C activity reflected a change in function, and not a change in the amount of Cdc20 co-factor protein produced by IVT/T, the amounts of Cdc20 protein produced by IVT/T was measured, and no significant difference was observed (S4 Table). […]

The test system of assay [5] is APC/C. Description: APC/C activity promoted by mutant Cdc20 alleles (Pds1 remaining). The assay is classed as biochemical, Saccharomyces cerevisiae. As for the experimental part: as §1, §2
For APC/C activity assays dried-gels were exposed on a phosphor screen cassette to detect radio-labeled protein. The phosphor screen was scanned by a Typhoon phosphor-imager (GE Healthcare Bio-Sciences, USA), and radio-labeled protein bands in gels were quantified by employing the ImageQuant software (GE Healthcare Bio-Sciences, USA) according to the manufacturer’s protocols. Data were expressed as mean ± standard deviation, and was analyzed using Student’s t-test. Graphs were created using Kaliedograph 4.0 (Synergy Software, USA) and estimates of best-fit curves of a 4-parameter Hill equation were generated to obtain estimates for the median inhibitory concentrations (IC50) and Hill coefficients (Hc) using IgorPro 6.01 (Wavemetrics, USA).
By sequence alignment and amino acid homology alone, the budding yeast KILR-motif may be defined as 201-RILQ-204 (Fig 1A). However, the next residue, Tyrosine Y205 had previously been isolated in a genetic screen for spindle checkpoint by-pass alleles of Cdc20 [21], indicating this Y205 residue may be a target of the spindle checkpoint inhibition, and thus might also be a functional KILR-motif residue that contributes to APC/C activation. To clarify this possibility, we took the initial step to characterize several of the previously isolated spindle checkpoint by-pass mutant alleles of Cdc20 [21], and also Cdc20 mutants in the two highly conserved residues within the Mad2-binding motif, the aspartic acid at D197 of unknown function and the highly conserved Leucine L203 within the KILR-motif based on sequence alignment and homology. […]

Assay [6] deals with Anaphase Promoting-Complex/Cyclosome (APC/C) isolated through Cdc16-TAP and kept on IgG beads (S. cerevisiae | S. cerevisiae (endogenous in yeast)) (UniProt P09798). The source holds these as a separate data set.

Chain of Anaphase Promoting-Complex/Cyclosome (APC/C) isolated through Cdc16-TAP and kept on IgG beads (S. cerevisiae | S. cerevisiae (endogenous in yeast)) (P09798 whole entry, looked up, one chain of several): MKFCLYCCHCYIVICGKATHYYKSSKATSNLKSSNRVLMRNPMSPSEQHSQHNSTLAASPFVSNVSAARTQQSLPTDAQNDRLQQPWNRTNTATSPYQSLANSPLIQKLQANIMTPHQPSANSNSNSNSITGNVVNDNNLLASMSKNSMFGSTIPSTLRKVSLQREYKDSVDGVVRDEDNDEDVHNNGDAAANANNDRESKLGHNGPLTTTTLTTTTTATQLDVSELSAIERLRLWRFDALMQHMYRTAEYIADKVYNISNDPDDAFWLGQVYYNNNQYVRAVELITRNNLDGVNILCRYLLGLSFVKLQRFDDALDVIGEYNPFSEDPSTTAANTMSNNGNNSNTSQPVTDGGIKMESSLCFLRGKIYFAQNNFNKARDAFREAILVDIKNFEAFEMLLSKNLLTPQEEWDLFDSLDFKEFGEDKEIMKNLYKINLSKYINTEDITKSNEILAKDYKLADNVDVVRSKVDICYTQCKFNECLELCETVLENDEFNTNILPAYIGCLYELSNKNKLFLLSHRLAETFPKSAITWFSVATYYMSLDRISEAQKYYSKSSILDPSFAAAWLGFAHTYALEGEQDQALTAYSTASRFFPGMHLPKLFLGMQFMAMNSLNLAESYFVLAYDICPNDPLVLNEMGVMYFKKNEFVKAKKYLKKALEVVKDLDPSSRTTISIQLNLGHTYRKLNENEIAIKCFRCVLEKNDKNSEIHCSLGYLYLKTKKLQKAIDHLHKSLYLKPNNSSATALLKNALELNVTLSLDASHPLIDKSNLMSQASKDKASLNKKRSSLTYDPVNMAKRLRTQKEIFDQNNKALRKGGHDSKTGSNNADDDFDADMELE

In the case of “non-biotinylated Tiny Yeast Comet 1 (Tyc1) (natural protein)”, in assay [1], the inhibition of APC/C^Cdc20 activity in vitro (35S-Pds1 substrate), titration of Tyc1; blocks the binding of co-factor Cdc20 to APC/C was found to be 50 µM.

Regarding “Bio-Tyc1: biotinylated-Tyc1 (Biotin-MKVLDDWFSRKFSKAVHGNNHGTISLSTLSYIRVHKLVK)”, the “pull-down of full-length Cdc20 from IVT/T lysate (in words)” value in assay [2] is “Both full-length and lower molecular weight forms of Cdc20 were observed”. In turn, “non-biotinylated PQ65 (Cdc20 169–232) (from UniProt P26309 169-232) (peptide)” displayed an inhibition of APC/C^Cdc20 activity in vitro (35S-Pds1 substrate), serial dilution of PQ65; blocks the binding of co-factor Cdc20 to APC/C in assay [3] of under 50 µM.

B1: Cdc20-127 (Y205N): spindle checkpoint by-pass mutant allele of Cdc20, Y205N (protein, UniProt P26309 1-610, looked up, variant Y205N)
APC/C activator protein CDC20: MPESSRDKGNAAISGNRSVLSIASPTKLNILSSDWSRNQGKVSKNSLKRSSSLNIRNSKRPSLQASANSIYSRPKITIGAPPLIRRDSSFFKDEFDAKKDKATFSAYSSRSYPTIGSESVVSQTSLSQPTTSREVDEQFTVAADRYIPILQGASQNKVDPETLHEALPPPNASPISHLRAQTKIVFKQNVAEACGLDMNKRILQNMPEPPKCSSLRQKSYIMKKRTHYSYQQEQKIPDLIKLRKINTNPERILDAPGFQDDFYLNLLSWSKKNVLAIALDTALYLWNATTGDVSLLTDFENTTICSVTWSDDDCHISIGKEDGNTEIWDVETMSLIRTMRSGLGVRIGSLSWLDTLIATGSRSGEIQINDVRIKQHIVSTWAEHTGEVCGLSYKSDGLQLASGGNDNTVMIWDTRTSLPQFSKKTHTAAVKALSWCPYSPNILASGGGQTDKHIHFWNSITGARVGSINTGSQVSSLHWGQSHTSTNGGMMNKEIVATGGNPENAISVYNYETKFKVAEVVHAHEARICCSQLSPDGTTLATVGGDENLKFYKIFDPRCTGRSREDGLMDGMLGLIGKEGCRTNDKENRSKNSSEIHTRRPSSTSQYLIR
Regarding B1, the “ability of mutant Cdc20 to promote APC/C activity in the presence of Mad2 (in words)” value in assay [4] is on record as “consistently displayed APC activity in the presence of Mad2”; in assay [4] (listed as Cdc20-127), “promote APC/C activity at the same level as control reactions even in the presence of 5.0 μM Mad2”. Besides, the “ability of mutant Cdc20 to promote APC/C activity (in words)” value is given as “consistently displayed a decrease in APC activity” in assay [5] (vs wild type Cdc20, n = 3) and “displayed decreased APC/C activity” in assay [5] (vs wild type Cdc20, n = 3, listed as Cdc20-127).

B2: Cdc20-106 (P209Q): spindle checkpoint by-pass mutant allele of Cdc20, P209Q (protein)
chain: B1 APC/C activator protein CDC20 with N205Y, P209Q
B2: the “ability of mutant Cdc20 to promote APC/C activity in the presence of Mad2 (in words)” value is listed as “consistently displayed APC activity in the presence of Mad2” in assay [4] and “promote APC/C activity at the same level as control reactions even in the presence of 5.0 μM Mad2” in assay [4] (listed as Cdc20-106). Take DMNKRILQYMPEPPKCSSLRQKSYIMKKRTHYSYQQ (not fully specified) [non-biotinylated DQ36 (Cdc20 197–232)]: in assay [6], the inhibition of APC/C^Cdc20 activity in vitro (35S-Pds1 substrate), titration of DQ36; blocks the binding of co-factor Cdc20 to APC/C amounted to 150 µM.
